According to US20250066422A1:

Columns and labels:
Assay in all cases: ProImmune REVEAL MHC-peptide binding assay
HLA-DR1 (human) = target: HLA-DR1 (human)
HLA-DR2 (human) = target: HLA-DR2 (human)
HLA-DR4 (human) = target: HLA-DR4 (human)
HLA-DR5 (human) = target: HLA-DR5 (human)
HLA-DR7 (human) = target: HLA-DR7 (human)

Binder: TLGEFLKLDRERAKN (peptide, from a related filing) [BIR-002]
- Relative Binding Score (% of positive control) (HLA-DR1 (human)): 40.1
- Relative Binding Score (% of positive control) (HLA-DR2 (human)): 0.05
- Relative Binding Score (% of positive control) (HLA-DR4 (human)): 6.12
- Relative Binding Score (% of positive control) (HLA-DR5 (human)): 104
- Relative Binding Score (% of positive control) (HLA-DR7 (human)): 0.27

Binder: TFSYVDPVITSISPKYG (peptide, from a related filing) [MET-005]
- Relative Binding Score (% of positive control) (HLA-DR1 (human)): 0.87
- Relative Binding Score (% of positive control) (HLA-DR2 (human)): 0.28
- Relative Binding Score (% of positive control) (HLA-DR4 (human)): 5.89
- Relative Binding Score (% of positive control) (HLA-DR5 (human)): 0.12
- Relative Binding Score (% of positive control) (HLA-DR7 (human)): 3.69
